{"source": "patent US20110280881A1", "about": "(RIKEN, published 2011)", "key": {"[1]": {"molecular_target": "T1, mouse HSP90β (NP-032328) (mouse, UniProt P11499 2-724)", "T1 construct": "whole, on cells; also called cell surface HSP90β", "T1 sequence (P11499 2-724)": "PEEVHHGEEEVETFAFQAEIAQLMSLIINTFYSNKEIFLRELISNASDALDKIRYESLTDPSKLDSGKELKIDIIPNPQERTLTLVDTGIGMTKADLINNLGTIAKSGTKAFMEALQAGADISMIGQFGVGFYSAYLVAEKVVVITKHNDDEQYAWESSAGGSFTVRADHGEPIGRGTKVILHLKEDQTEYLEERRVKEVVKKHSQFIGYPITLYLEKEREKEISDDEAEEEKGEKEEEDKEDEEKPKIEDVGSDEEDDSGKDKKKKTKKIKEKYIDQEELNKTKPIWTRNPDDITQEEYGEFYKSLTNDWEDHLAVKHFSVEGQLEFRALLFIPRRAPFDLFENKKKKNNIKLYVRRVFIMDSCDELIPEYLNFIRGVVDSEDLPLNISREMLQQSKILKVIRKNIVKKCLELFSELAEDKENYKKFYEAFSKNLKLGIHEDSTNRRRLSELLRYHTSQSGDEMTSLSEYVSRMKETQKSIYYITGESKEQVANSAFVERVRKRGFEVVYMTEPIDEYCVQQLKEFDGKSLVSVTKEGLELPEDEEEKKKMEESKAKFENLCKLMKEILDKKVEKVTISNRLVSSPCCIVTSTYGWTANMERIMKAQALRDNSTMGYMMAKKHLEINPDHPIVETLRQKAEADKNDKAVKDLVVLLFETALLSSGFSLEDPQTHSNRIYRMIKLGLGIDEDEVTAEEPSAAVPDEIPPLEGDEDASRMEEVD", "assay": "antibody bound to living DC2.4 cells, lysis, Protein G-Sepharose, blot", "method": "(§1) Mammalian HSP90 occurs in two isoforms: HSP90α and β. The following experiment was performed to determine whether not only HSP90α but also HSP90β is recognized by the antibody of the present invention. […] After being thoroughly washed to remove the unreacted antibody, the cells were lysed; the lysate was centrifuged at 10,000×g, and the resulting supernatant was incubated along with Protein G-Sepharose. The bound material was subjected to SDS-PAGE, after which blotting was performed using an anti-HSP90α antibody (SPS-771, Assay designs), an anti-HSP90β antibody (PB-118-P1, Neomarkers), or an antibody that recognizes both HSP90α and β (6B1C4, another antibody obtained in Example 1)."}, "[2]": {"molecular_target": "T2, mouse HSP90α (NP-034610) (mouse, UniProt P07901 2-733)", "T2 construct": "whole, on cells; also called cell surface HSP90α", "assay": "antibody bound to living DC2.4 cells, lysis, Protein G-Sepharose, blot", "method": "as §1"}}, "data": [{"binder": "6H8D2 anti-HSP90 monoclonal antibody (hybridoma FERM BP-11222) (antibody, V domains shown, Mouse monoclonal IgG from a hybridoma; Normal mouse IgG2a served as its control; It was biotinylated for FACS; also called 6H8 antibody; 6H8 mAb) VH: QVQLQQSGPELVKPGASVRISCKASGYTFTSYYIHWVKQRPGQGLEWIGWIYPGNVNTKYNEKFKGKATLTADKSSSTAYMQLSSLTSEDSAVYFCARYGNYPFAYWGQGTLVTVSA VL: DVVMTQTPLSLPVSLGDQASISCRSSQSLVHSNGNTYLHWYLQKPGQSPKLLIYKVSNRFSGVPDRFSGSGSGTDFTLKISRVEAEDLGVYFCSQSTHVPPTFGGGTKLEIKR", "values": [{"measurement": "binding result", "setting": "[1]", "value": "binds"}, {"measurement": "binding result", "setting": "[2]", "value": "binds"}]}]}
